Measurements taken from US20030108554A1 (published 2003).

How the values were obtained:
GIP130b = molecular target: T1, GIP130b (human, UniProt Q4L180 1-1128); test: yeast two-hybrid and three-hybrid (conclusion)
T1 construct: Full length; tested as GAL4 domain fusion in yeast two-hybrid
T1 sequence: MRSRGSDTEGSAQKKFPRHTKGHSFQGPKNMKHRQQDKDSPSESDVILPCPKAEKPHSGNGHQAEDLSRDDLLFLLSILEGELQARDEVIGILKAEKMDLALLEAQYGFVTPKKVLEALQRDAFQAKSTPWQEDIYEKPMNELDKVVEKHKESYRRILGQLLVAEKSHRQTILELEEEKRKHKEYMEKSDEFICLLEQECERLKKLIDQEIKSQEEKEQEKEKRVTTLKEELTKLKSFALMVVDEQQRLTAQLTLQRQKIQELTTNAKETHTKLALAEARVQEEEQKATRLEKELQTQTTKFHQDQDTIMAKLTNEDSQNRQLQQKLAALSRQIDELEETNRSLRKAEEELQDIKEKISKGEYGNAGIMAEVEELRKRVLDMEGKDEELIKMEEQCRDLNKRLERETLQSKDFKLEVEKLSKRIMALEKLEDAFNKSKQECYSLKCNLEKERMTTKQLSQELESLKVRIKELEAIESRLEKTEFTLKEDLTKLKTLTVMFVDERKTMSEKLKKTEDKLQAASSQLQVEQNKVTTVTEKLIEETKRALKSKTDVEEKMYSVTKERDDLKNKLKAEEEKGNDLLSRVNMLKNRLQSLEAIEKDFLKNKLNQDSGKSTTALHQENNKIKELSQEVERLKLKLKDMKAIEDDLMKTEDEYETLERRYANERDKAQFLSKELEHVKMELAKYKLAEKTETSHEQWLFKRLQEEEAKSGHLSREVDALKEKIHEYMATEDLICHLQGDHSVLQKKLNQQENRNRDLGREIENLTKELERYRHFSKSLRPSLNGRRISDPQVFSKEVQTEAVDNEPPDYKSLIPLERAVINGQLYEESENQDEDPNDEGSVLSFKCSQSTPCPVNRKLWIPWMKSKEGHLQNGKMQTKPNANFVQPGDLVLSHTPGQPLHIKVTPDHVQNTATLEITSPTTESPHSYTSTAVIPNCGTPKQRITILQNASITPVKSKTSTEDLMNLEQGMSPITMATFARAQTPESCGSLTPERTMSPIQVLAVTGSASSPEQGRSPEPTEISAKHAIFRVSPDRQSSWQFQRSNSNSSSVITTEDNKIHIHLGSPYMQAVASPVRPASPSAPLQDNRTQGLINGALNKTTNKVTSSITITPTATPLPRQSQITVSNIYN
Description: (§1) Accordingly, we have observed with a yeast three-hybrid system that GPBP expression efficiently impairs both I-20 and GIP90 aggregation, and that I-20 and GIP90 efficiently impair GPBP aggregation.
(§2) Deletion mutants were obtained using specific primers and PCR, followed by cloning of the resulting cDNAs in the pGBT9 and pGAD424 vectors. The assays were performed in SFY526 or HF7c Saccharomyces cerevisiae strains, with pGBT9 as GAL4 binding domain vector and pGAD424 as GAL4 activation domain vector, by the lift colony assay procedure. Briefly, the yeast cells were co-transformed with constructs of both binding domain and activation domain vectors, and the co-transformants were selected in medium deficient in both tryptophan and leucine. After five days of incubation at 30° C. the colonies were tested for the expression of β-galactosidase with X-Gal substrate (0.75 mg/ml). […] When the assays were performed with the HF7c strain, the interactions were assessed by the lift colony assay procedure and by growth in medium deficient in histidine, tryptophan and leucine. For yeast three-hybrid system, we used the pBRIDGE vector, which allows the conditional expression of a third protein apart from the usual GAL4 binding and activation domain-fusion proteins of the two-hybrid system. In this case, the expression of GPBP or I-20 or GIP90 was driven by Met25 promoter, active in absence of methionine. In these experiments, the transformed SFY526 cells were plated in medium deficient in tryptophan, leucine and methionine, and subjected to the colony lift assay after five days at 30° C. In the case of the strain HF7c the colonies grown in the cited plates were streaked on medium with the additional deficiency of histidine.

GIP130a = molecular target: T2, GIP130a (human, UniProt Q4L180 1-1135); test: yeast two-hybrid and three-hybrid (conclusion)
T2 construct: Full length; tested as GAL4 domain fusion in yeast two-hybrid
T2 sequence: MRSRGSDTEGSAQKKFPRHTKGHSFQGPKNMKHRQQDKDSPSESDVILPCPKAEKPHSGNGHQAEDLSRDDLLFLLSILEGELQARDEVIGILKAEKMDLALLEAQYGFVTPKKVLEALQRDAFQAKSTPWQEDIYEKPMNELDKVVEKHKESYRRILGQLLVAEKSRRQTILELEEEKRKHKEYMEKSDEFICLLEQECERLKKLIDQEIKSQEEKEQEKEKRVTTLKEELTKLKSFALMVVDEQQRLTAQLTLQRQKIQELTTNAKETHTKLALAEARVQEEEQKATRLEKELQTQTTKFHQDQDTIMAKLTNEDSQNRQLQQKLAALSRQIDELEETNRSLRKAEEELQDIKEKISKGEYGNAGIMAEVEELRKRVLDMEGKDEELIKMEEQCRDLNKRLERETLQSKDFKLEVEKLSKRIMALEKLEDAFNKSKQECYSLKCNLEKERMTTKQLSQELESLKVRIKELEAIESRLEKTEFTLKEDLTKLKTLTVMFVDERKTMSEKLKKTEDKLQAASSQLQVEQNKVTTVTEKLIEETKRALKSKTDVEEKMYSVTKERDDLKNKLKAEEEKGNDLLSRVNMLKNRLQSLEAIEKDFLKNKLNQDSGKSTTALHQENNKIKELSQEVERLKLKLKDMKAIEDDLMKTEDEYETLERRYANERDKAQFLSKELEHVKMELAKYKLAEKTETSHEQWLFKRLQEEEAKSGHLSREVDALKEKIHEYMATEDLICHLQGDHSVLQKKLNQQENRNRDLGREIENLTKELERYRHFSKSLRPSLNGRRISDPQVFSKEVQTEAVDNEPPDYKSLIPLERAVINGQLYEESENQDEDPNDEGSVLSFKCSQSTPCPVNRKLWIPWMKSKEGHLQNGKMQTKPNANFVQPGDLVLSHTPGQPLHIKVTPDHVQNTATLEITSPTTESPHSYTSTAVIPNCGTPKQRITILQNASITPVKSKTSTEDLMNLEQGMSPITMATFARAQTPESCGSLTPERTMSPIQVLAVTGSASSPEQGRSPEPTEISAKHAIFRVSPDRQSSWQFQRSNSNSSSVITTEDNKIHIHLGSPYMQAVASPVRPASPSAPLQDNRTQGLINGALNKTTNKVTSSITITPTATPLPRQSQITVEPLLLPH
Description: as §1, §2

B1: Goodpasture antigen binding protein (GPBP) (enzyme, UniProt Q9Y5P4 1-624, looked up)
chain: MSDNQSWNSSGSEEDPETESGPPVERCGVLSKWTNYIHGWQDRWVVLKNNALSYYKSEDETEYGCRGSICLSKAVITPHDFDECRFDISVNDSVWYLRAQDPDHRQQWIDAIEQHKTESGYGSESSLRRHGSMVSLVSGASGYSATSTSSFKKGHSLREKLAEMETFRDILCRQVDTLQKYFDACADAVSKDELQRDKVVEDDEDDFPTTRSDGDFLHSTNGNKEKLFPHVTPKGINGIDFKGEAITFKATTAGILATLSHCIELMVKREDSWQKRLDKETEKKRRTEEAYKNAMTELKKKSHFGGPDYEEGPNSLINEEEFFDAVEAALDRQDKIEEQSQSEKVRLHWPTSLPSGDAFSSVGTHRFVQKPYSRSSSMSSIDLVSASDDVHRFSSQVEEMVQNHMTYSLQDVGGDANWQLVVEEGEMKVYRREVEENGIVLDPLKATHAVKGVTGHEVCNYFWNVDVRNDWETTIENFHVVETLADNAIIIYQTHKRVWPASQRDVLYLSVIRKIPALTENDPETWIVCNFSVDHDSAPLNNRCVRAKINVAMICQTLVSPPEGNQEISRDNILCKITYVANVNPGGWAPASVLRAVAKREYPKFLKRFTSYVQEKTAGKPILF
notes: Protein kinase; Fusion parts are not written as pieces
binding result (GIP130b): binds | binding result (GIP130a): binds
